Measurements reported in patent US20120065133A1 (University of Pennsylvania, published 2012).
Ends that are not written are not given here.

Biological target: the molecule itself
Assay: analytical ultracentrifugation; self-association of the peptide

B1: Construct 12 (AP6) (peptide)
peptide: CGGGEIWKQHEEALKKLFAFHFILPFIIMAIAMVHLLFLFGEGL
modifications: also: acetylated (position not given here)
notes: Designed amphiphilic helical peptide made by solid-phase synthesis; Heme cofactors may have been present; also called amphiphilic construct AP6
binding result: binds
